Results as given in patent publication US8900593B2 (Indiana University Research and Technology Corporation, priority 2007, dated 2014).
Like-named read-outs stand apart in the source and are kept apart here. Where a SMILES comes first, the peptide text is derived from it. Bridges are numbered along the chain shown (N, C = ends). Where no end group is shown, it is not given here. [ ]: non-standard residue; d: D form. The star is where a group is joined. Isobutyryl(2-imidazol-4-yl) = CC(C)(C(=O)*)c1c[nH]cn1; DMIA = not defined here; PEG = not defined here; Aib = CC(C)(N)C(=O)O

Columns and labels:
glucagon receptor = target: T1, glucagon receptor (Homo sapiens, UniProt P47871); test: Functional assay-cAMP synthesis, luciferase reporter in HEK293 cells co-transfected with glucagon receptor; assay type: cell-based; conditions: for Parent w/PEG % Potency Relative to Native GR / Parent w/o PEG % Potency Relative to Native GR: Table 12; for Parent w/PEG % Potency Relative to Native GR: pegylated peptide; for Parent w/o PEG % Potency Relative to Native GR: peptide without PEG; for Glucagon Receptor Relative Potency (%): Table 11, relative to glucagon (SEQ ID NO: 1) = 100; for Percent Potency Relative to Native Ligand GRec: relative to native glucagon
T1 construct: expressed in transfected cells; host or cells: HEK293

GLP-1 receptor = target: T2, GLP-1 receptor (Homo sapiens, UniProt P43220); test: Functional assay-cAMP synthesis, luciferase reporter in HEK293 cells co-transfected with GLP-1 receptor; assay type: cell-based; conditions: for GLP 1 Receptor Relative Potency (%): Table 11, relative to GLP-1-VKGG30 (SEQ ID NO: 527) = 100; for Percent Potency Relative to Native Ligand GLP-1Rec: relative to native GLP-1
T2 construct: expressed in transfected cells; host or cells: HEK293
T2 sequence (P43220 24-463, species assumed): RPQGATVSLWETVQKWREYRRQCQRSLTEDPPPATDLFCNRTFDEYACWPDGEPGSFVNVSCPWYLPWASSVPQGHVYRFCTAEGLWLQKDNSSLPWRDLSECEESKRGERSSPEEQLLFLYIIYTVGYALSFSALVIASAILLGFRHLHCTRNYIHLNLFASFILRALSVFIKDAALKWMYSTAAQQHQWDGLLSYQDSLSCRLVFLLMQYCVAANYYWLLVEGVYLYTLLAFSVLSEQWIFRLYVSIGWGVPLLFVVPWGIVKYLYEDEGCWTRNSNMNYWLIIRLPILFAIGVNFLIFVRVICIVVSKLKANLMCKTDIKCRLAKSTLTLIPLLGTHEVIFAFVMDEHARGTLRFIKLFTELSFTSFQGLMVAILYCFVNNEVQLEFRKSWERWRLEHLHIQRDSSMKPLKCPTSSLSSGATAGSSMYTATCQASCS

T1 sequence (P47871 26-477): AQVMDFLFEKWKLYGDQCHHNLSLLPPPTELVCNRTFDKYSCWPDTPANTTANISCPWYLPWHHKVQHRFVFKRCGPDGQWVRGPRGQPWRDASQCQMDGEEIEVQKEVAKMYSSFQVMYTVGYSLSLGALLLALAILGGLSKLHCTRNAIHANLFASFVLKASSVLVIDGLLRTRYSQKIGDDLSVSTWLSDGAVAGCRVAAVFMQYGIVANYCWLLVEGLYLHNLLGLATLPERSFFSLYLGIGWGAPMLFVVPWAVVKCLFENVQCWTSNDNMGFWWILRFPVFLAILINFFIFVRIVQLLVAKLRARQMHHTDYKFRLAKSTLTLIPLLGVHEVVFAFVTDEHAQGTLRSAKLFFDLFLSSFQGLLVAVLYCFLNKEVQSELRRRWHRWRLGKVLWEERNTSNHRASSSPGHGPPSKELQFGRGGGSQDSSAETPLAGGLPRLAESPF

| Parent w/PEG % Potency Relative to Native GLP-1R (GLP-1 receptor; Table 12, pegylated peptide) [%] | Compound | Parent w/PEG % Potency Relative to Native GR (glucagon receptor) [%] | Parent w/o PEG % Potency Relative to Native GR (glucagon receptor) [%] | Parent w/PEG % Potency Relative to Native GLP-1R (GLP-1 receptor) [%] | Parent w/o PEG % Potency Relative to Native GLP-1R (GLP-1 receptor) [%] | further results |
| --- | --- | --- | --- | --- | --- | --- |
| 82.5 | HX2QGT FTSDY SKYLD EQAAK EFIC*W LMNTa [Chimera AIB2, Cys24 (SEQ ID NO: 486)] | 2.6 | 15.4 |  |  | Parent w/o PEG % Potency Relative to Native GLP-1R (GLP-1 receptor; Table 12, peptide without PEG): 160.6% |
|  | HX2QGT FTSDY SKYLD EQAAK EFIC*W LMNGG PSSGA PPPSa (H[Aib]QGTFTSDYSKYLDEQAAKEFICWLMNGGPSSGAPPPS-NH2; lactam (positions not given here); also: optional PEG on Cys24) [X2=AIB; C* is Cys or Cys attached to PEG] | 1.4 | 25.2 | 96.4 | 381.5 |  |
|  | HX2QGT FTSDY SKYLD EQAAK EFIC*W LMNTa | 9.2 | 114.2 | 38.0 | 230.4 |  |
|  | CC[C@H](C)[C@H](NC(=O)[C@H](Cc1ccccc1)NC(=O)[C@H](CCC(=O)O)NC(=O)[C@H](CCCCN)NC(=O)[C@H](C)NC(=O)[C@H](C)NC(=O)[C@H](CCC(N)=O)NC(=O)[C@H](CCC(=O)O)NC(=O)[C@H](CC(=O)O)NC(=O)[C@H](CC(C)C)NC(=O)[C@H](Cc1ccc(O)cc1)NC(=O)[C@H](CCCCN)NC(=O)[C@H](CO)NC(=O)[C@H](Cc1ccc(O)cc1)NC(=O)[C@H](CC(=O)O)NC(=O)[C@H](CO)NC(=O)[C@@H](NC(=O)[C@H](Cc1ccccc1)NC(=O)[C@@H](NC(=O)CNC(=O)[C@H](CCC(N)=O)NC(=O)[C@H](CO)NC(=O)[C@@H](N)Cc1c[nH]cn1)[C@@H](C)O)[C@@H](C)O)C(=O)N[C@H]1CCC(=O)NCCCC[C@@H](C(=O)NCC(N)=O)NC(=O)[C@H](C(C)C)NC(=O)[C@H](CC(C)C)NC(=O)[C@H](Cc2c[nH]c3ccccc23)NC1=O [E16 GLP(17-29)-NH2 E24, K28 Lactam] (H-HSQGTFTSDYSKYLDEQAAKEFIEWLVKG-NH2; lactam 24-28; N-terminus assumed) |  |  |  |  | EC50 (glucagon receptor; Glucagon Receptor EC50(nM), Table 10, GLP-1 17-26 glucagon analogs): 0.16 nM; EC50 (GLP-1 receptor): 0.007 nM |
| 19.3 | X1SQGT FTSDYSKYLD EQAAK EFIC*W LMNTa [Chimera DMIA1, Cys24 (SEQ ID NO: 519)] | 6.9 | 28.9 |  |  | Parent w/o PEG % Potency Relative to Native GLP-1R (GLP-1 receptor; Table 12, peptide without PEG): 64.5% |
|  | HSQGTFTSDYSKYLDSRRAQDFVQWLVKGGPSSGAPPPS-NH2 [-VKGG^30 PSSGAPPPS (SEQ ID NO: 524)] |  |  |  |  | EC50 (glucagon receptor): 1.16 nM; Glucagon Receptor Relative Potency (%) (glucagon receptor): 7%; EC50 (GLP-1 receptor): 0.21 nM; GLP 1 Receptor Relative Potency (%) (GLP-1 receptor): 12% |
|  | CSCC[C@H](NC(=O)[C@H](CC(C)C)NC(=O)[C@H](Cc1c[nH]c2ccccc12)NC(=O)[C@H](CCC(N)=O)NC(=O)[C@@H](NC(=O)[C@H](Cc1ccccc1)NC(=O)[C@H](CC(=O)O)NC(=O)[C@H](CCC(N)=O)NC(=O)[C@H](C)NC(=O)[C@H](CCCNC(=N)N)NC(=O)[C@H](CCCNC(=N)N)NC(=O)[C@H](CO)NC(=O)[C@H](CC(=O)O)NC(=O)[C@H](CC(C)C)NC(=O)[C@H](Cc1ccc(O)cc1)NC(=O)[C@H](CCCCN)NC(=O)[C@H](CO)NC(=O)[C@H](Cc1ccc(O)cc1)NC(=O)[C@H](CC(=O)O)NC(=O)[C@H](CO)NC(=O)[C@@H](NC(=O)[C@H](Cc1ccccc1)NC(=O)[C@@H](NC(=O)CNC(=O)[C@H](CCC(N)=O)NC(=O)[C@H](CO)NC(=O)[C@@H](N)Cc1c[nH]cn1)[C@@H](C)O)[C@@H](C)O)C(C)C)C(=O)N[C@@H](CCCCN)C(=O)NCC(=O)NCC(=O)N1CCC[C@H]1C(=O)N[C@@H](CO)C(=O)N[C@@H](CO)C(=O)NCC(=O)N[C@@H](C)C(=O)N1CCC[C@H]1C(=O)N1CCC[C@H]1C(=O)N1CCC[C@H]1C(=O)N[C@@H](CO)C(N)=O [-MKGG^30 PSSGAPPPS (SEQ ID NO: 523)] |  |  |  |  | EC50 (glucagon receptor): 0.61 nM; Glucagon Receptor Relative Potency (%) (glucagon receptor): 14%; EC50 (GLP-1 receptor): 0.8 nM; GLP 1 Receptor Relative Potency (%) (GLP-1 receptor): 3% |
|  | X1SQGT FTSDY SKYLD EQAAK EFIC*W LMNTa | 19.1 | 160.7 | 12.5 | 82.5 |  |
|  | X1SQGT FTSDY SKYLD ERRAK DFVC*W LMNGG PSSGA PPPSa ([DMIA]SQGTFTSDYSKYLDERRAKDFVCWLMNGGPSSGAPPPS-NH2; lactam (positions not given here); not fully specified; reading uncertain) [X1=DMIA; C* is Cys or Cys attached to PEG] | 12.6 | 116.0 | 11.3 | 78.3 |  |
|  | HSQGTFTSDYSKYLDERRAKDFVQW LMNTa [E16, K20 Gluc-NH2] (HSQGTFTSDYSKYLDERRAKDFVQWLMNT-NH2) |  |  |  |  | Percent Potency Relative to Native Ligand GRec (glucagon receptor; Table 5): 130.1%; Percent Potency Relative to Native Ligand GRec (glucagon receptor; Table 9, E16/lactam analogs): 130.1%; Percent Potency Relative to Native Ligand GLP-1Rec (GLP-1 receptor; Table 5): 41.5%; Percent Potency Relative to Native Ligand GLP-1Rec (GLP-1 receptor; Table 9, E16/lactam analogs): 41.5% |
| 27.3 | X1SQGT FTSDYSKYLD EQAAK EFIAW LMNC*a ([Isobutyryl(2-imidazol-4-yl)]SQGTFTSDYSKYLDEQAAKEFIAWLMNC(PEG)-NH2; reading uncertain) [Chimera DMIA1, Cys29 (SEQ ID NO: 520), X1=DMIA; C* is Cys attached to PEG in the tested form] | 5.3 |  |  |  |  |
|  | HX2QGT FTSDY SKYLD ERRAK DFVC*W LMNTa (H[Aib]QGTFTSDYSKYLDERRAKDFVCWLMNT-NH2; lactam (positions not given here); also: optional PEG on Cys24) [X2=AIB; C* is Cys or Cys attached to PEG] | 15.8 | 108.3 | 31.0 | 96.9 |  |

| Compound | Parent w/PEG % Potency Relative to Native GLP-1R (GLP-1 receptor; Table 12, pegylated peptide) [%] | Parent w/PEG % Potency Relative to Native GR (glucagon receptor) [%] | Parent w/o PEG % Potency Relative to Native GR (glucagon receptor) [%] | Parent w/PEG % Potency Relative to Native GLP-1R (GLP-1 receptor) [%] | Parent w/o PEG % Potency Relative to Native GLP-1R (GLP-1 receptor) [%] | further results |
| --- | --- | --- | --- | --- | --- | --- |
| HX2QGT FTSDY SKYLD ERAAK DFVC*W LMNGG PSSGA PPPSa (H[Aib]QGTFTSDYSKYLDERAAKDFVC(PEG)WLMNGGPSSGAPPPS-NH2; reading uncertain) [X2=AIB; C* is Cys attached to PEG in the tested form] | 88.5 | 0.1 |  |  |  |  |
